Results taken from the nanobody polyreactivity screen of Harvey et al. (2022).

Assay: yeast display, Sf9 membrane polyspecificity reagent, FACS + sequencing; frameworks hold sequencing errors
Summary of the method: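 Synthetic nanobody libraries on Saccharomyces cerevisiae BJ5465 were galactose-induced for 36–48 hours, stained 1 hour at 4 °C with 10% biotinylated, detergent-solubilized Sf9 membrane reagent and enriched on streptavidin microbeads. FACS then separated cells into low and high (top ~1%) gates by anti-HA (expression) and streptavidin (reagent binding) fluorescence. Genes were colony-PCR amplified, MiSeq 2 × 250 sequenced and CDR-length filtered. A clone's polyreactivity label is that of its gate of origin.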

Row | Sequence | polyreactivity (PSR sort gate)
1 | QVQLVESGGGLVQAGGSLRLSCAASGSILGYYAMGWYRQAPGKERELVAAITASGGSTYYADSVKGRFTISRDNAKNTVYLQMNSLKPEDTAVYYCAARRIAPYGRYDYWGQGTQVTVSS | low polyreactivity
2 | QVQLVESGGGLVQAGGSLRLSCAASGSILGYYAMGWYRQAPGKERELVAITSGDSTYYADSVKGRFTISRDNAKNTVYLQMNSLKPEDTAVYYCNARYSWKYDYWGQGTQVTVSS | high polyreactivity
3 | QVQLVESGGGLVQAGGSLRLSCAASGSILGYYVMGWYRQAPGKERELVAAISWSSGSTYYADSVKGRFTISRDNAKNTVYLQMNSLKPEDTAVYYCNAGGVYDEFNYWGQGTQVTVSS | low polyreactivity
4 | QVQLVESGGGLVQAGGSLRLSCAASGSILHAYAMGWYRQAPGKEREFVAAIRRRGGSTYYADSVKGRFTISRDNAKNTVYLQMNSLKPEDTAVYYCAARFPLIGDSGGKSDYWGQGTQVTVSS | high polyreactivity
5 | QVQLVESGGGLVQAGGSLRLSCAASGSILIWNTMGWYRQAPGKERELVAAISSGASTYYADSVKGRFTISRDNAKNTVYLQMNSLKPEDTAVYYFYVDLPRVLTDDSWGQGTQVTVSS | low polyreactivity
6 | QVQLVESGGGLVQAGGSLRLSCAASGSILKNNAMGWYRLAPGKERELVAAITYSSGSTYYADSVKGRFTISRDNAKNTVYLQMNSLKPEDTAVYYCAAVYRYRYSFSGGYYWGQGTQVTVSS | low polyreactivity
7 | QVQLVESGGGLVQAGGSLRLSCAASGSILNGYAMGLYRQAPGKERELVAAISGSGGSTHYADSVKWRFTISRDNAKNTVYLQMNSLKPEDTAVYYCAAAYKWTYYWGQGTQVTVSS | high polyreactivity
8 | QVQLVESGGGLVQAGGSLRLSCAASGSILNNYAMGWYRQAPGKERELVAAISSSGGTNYADSVKGRFTISRDNAKNTVYLQMYSLKPEDTAVYYCNADVLDGGYDYWGQGTQVTVSS | low polyreactivity
9 | QVQLVESGGGLVQAGGSLRLSCAASGSILQDYAMGWYRQAPGKERELVAAISNSGDSTYYADSVKGRFTISRDNAKNTVYLQMNSLKPEDTAVYYCNAAVYPYALYSGGLDYDYWGQGTQVTVSS | low polyreactivity
10 | QVQLVESGGGLVQAGGSLRLSCAASGSILQRNAMGWYRQAPGKERELVAAISSSGDNTYYADSVKGRITISRDNAKNTVYLQMNSLKPEDTAVYYCATDADIYFQEYDYWGQGTQVTVSS | low polyreactivity
11 | QVQLVESGGGLVQAGGSLRLSCAASGSILQTYAMGWYRQAPGKERELVAAITWSVVSTYYADSVKGRFTISRDNAKNTVYLQMNSLKPEDTAVYYCNARSFGDPGNAYDYWGQGTQVTVSS | high polyreactivity
12 | QVQLVESGGGLVQAGGSLRLSCAASGSILRGYAMGWYRQAPGKERELVAAITWNGGSTYYADSVKGRFTISRDNAKNTVYLQMNSLKPEDTAVYYCNRAIGPYSYPDNYWGQGTQVTVSS | high polyreactivity
13 | QVQLVESGGGLVQAGGSLRLSCAASGSILRLYVMGWYRQAPGKERELVADISDRGGSTYYADSVKGRFTISRDNAKNTVYLQMNSLKPEDTAVYYCAAEWGQSGGGGYYYWGQGTQVTVSS | low polyreactivity
14 | QVQLVESGGGLVQAGGSLRLSCAASGSILRSNAMGWYRQAPGKERELVAVISNDDSTYYADSVKGRFTISRDNATNTVYLQMNSLKPEDTAVYYCNAVYYYFFRWHPIYDSWGQGTQVTVSS | low polyreactivity
15 | QVQLVESGGGLVQAGGSLRLSCAASGSILRTYTMGWYRQAPGKERELVAAISSSGGRTYYADSVKGRFTISRDNAKNTVYLQMNSLKPEDTAVYYCNAGGYRYRSYDYWGQGTQVTVSS | high polyreactivity
16 | QVQLVESGGGLVQAGGSLRLSCAASGSILSAYAMGWYRQAPGKERELVAAISWSGGSTYYADSVKGRFTISRDNAKNTVYLQMNSLKPEDTAVYYCATVNKKWRRYDYWGQGTQVTVSS | high polyreactivity
17 | QVQLVESGGGLVQAGGSLRLSCAASGSILSGYAMVWYRQAPGTERELVAAITSGGDTNYADSVKGRFTISRDNAKNTVYLQMNSLKPEETAVYYCAADPSYLGLFGYDYWGQGTQVTVSS | low polyreactivity
18 | QVQLVESGGGLVQAGGSLRLSCAASGSILSINGMGWYRQAPGKERELVATIDGSDGTTFYADSVKGRFTISRDNAKNTVYLQMNSLKPEDTAVYYCAAENFWQTKEYDYWGQGTQVTVSS | low polyreactivity
19 | QVQLVESGGGLVQAGGSLRLSCAASGSILSQYAMGWYRQAPGKERELVAAITYSGGSTHYADSVKGRFTISRDNAKNTVYLEMNSLKPEDTAVYYCAAKGPRRWGSGLDYWGQGTHVTVSS | low polyreactivity
20 | QVQLVESGGGLVQAGGSLRLSCAASGSILSWYAMGWYRQAPGKERELVAAITSGASTYYADSVKGRFTISRDNAKNTVYLQMNSLKPEDTAVYYCAAYPPSQRAEYDYWGQGTQVTVSS | low polyreactivity
21 | QVQLVESGGGLVQAGGSLRLSCAASGSILSYNTMGWYRHAPGKEREFVACITYSGSRTYYADSVKGRFTISRDKAKNTDYLQMNSLKPEDTAVYYCAKRNYYLLYWGQGTQVTVSS | high polyreactivity
22 | QVQLVESGGGLVQAGGSLRLSCAASGSILSYYVMGWYRQAPGKERELVAAITSDGSTNYADSVKGRFTISRDNAKNTVYLQMNSQKPEDTAVYYCAAVIAWYYGVQDVYYLGLYDYWGQGTQVTVSS | low polyreactivity

Row | Sequence | polyreactivity (PSR sort gate)
23 | QVQLVESGGGLVQAGGSLRLSCAASGSILTDNAMGWYRQAPGKERELVAAITSSGNTNYADSVKGRFTISRDNAKNTVYLQMKSLKPEDTAVYYCAAVSYYKHWTDWLPVGEDYWGQGTQVTVSS | low polyreactivity
24 | QVQLVESGGGLVQAGGSLRLSCAASGSILTDYAMGWYRQAPGKERELVATISNGGSTNYADSVKGRFTISRDNAKNTVYLQMNSLKPEDTAVYYCNAEPGVPSWELDYWGQGTQVTVSS | low polyreactivity
25 | QVQLVESGGGLVQAGGSLRLSCAASGSILTHYAMGRYRPAPGKERELVAAITWRGGSTYYADSVKGRFTISRDNAKNTVYLQMNSLKTEDTAVYYCAADLSYPDWSRYQWDMDYWGQGTQLTVSS | low polyreactivity
26 | QVQLVESGGGLVQAGGSLRLSCAASGSILTYNFMGWYRQAPGKERELVASISWSGGRTYYADSVKGRFTISRDNAKNTVYLQMNSLKPEDTAAAYCAVSQSWYWYYASDYWGQGTQVTVSS | low polyreactivity
27 | QVQLVESGGGLVQAGGSLRLSCAASGSILVDYAMGWYRQAPGKERELVASITRDGSTNYADSVKGRFTISRDNAKNTVYLQMNSLKPEDTAVYYCAAKYAWRLLEMYYWGQGTQVTVSS | low polyreactivity
28 | QVQLVESGGGLVQAGGSLRLSCAASGSILVHYAMGWYRPAPGKEWELVAAISSVGSTNYADSVKGRFTMTRDNAKNTVYLQMNSLKPEDTAVYYCAARASRWYIAVDYWRQGTQVTVSS | low polyreactivity
29 | QVQLVESGGGLVQAGGSLRLSCAASGSILVNMGWYRQPPGKERELVAAIRYGGGRTYYADSVKGRFTISRDNAKNTVYLQMNSLKPEDTAVYYCAASQGRSYYYWGQGTQVTVSS | low polyreactivity
30 | QVQLVESGGGLVQAGGSLRLSCAASGSILVRYAMGWYRQAPGKERELVAAITYSGGSTYYADSVKGRFTISRDNAKNTVYLQMNSLKPEDTAVYYCAADVWWSYYRYDYWGQGTQVTVSS | low polyreactivity
31 | QVQLVESGGGLVQAGGSLRLSCAASGSILVYNAMGWYRQAPGKERELVAAISNTGRTYYAVSVKGRFTISRDIAKNTVYVQMNSLKPEDTAVYYCAAARTSTGSYRYEYWGQGTQGTVSS | high polyreactivity
32 | QVQLVESGGGLVQAGGSLRLSCAASGSILWLNAMGWYRQAPGKERELVADITRGGSTYYADSVKGRFTISRDNAKNTVYLQMNSLKPEDTAVYYCAAKRGKTYQRFDYWGQGTQVTVSS | high polyreactivity
33 | QVQLVESGGGLVQAGGSLRLSCAASGSILWSYAMGWYRQAPGKERELVAAISGSTGSTYYADSVKGRFTISRDNAKNTVYLQMNSLKPEDTAVYYCAAEYYEDYDDYDYWGQGTQVTVSS | low polyreactivity
34 | QVQLVESGGGLVQAGGSLRLSCAASGSILWSYAMGWYRQAPGKERELVAAITSGGSTYYADSVKGRFTISRDNAKNTVYLQMNSLKPEDTAVYYCAADRWRDFWFNEEYWGQGTQVTVSS | high polyreactivity
35 | QVQLVESGGGLVQAGGSLRLSCAASGSILYISARGWYRQAPGKERELVASINSGASTNYADSVKGRFTISRDNAKNTVYLQMNSLKPEDTAVYYCAKSIVNPPHGFKDFDYWGQGTQVTLSS | low polyreactivity
36 | QVQLVESGGGLVQAGGSLRLSCAASGSILYIYAMGWYRQAPGKVRELVAAITGSGGTTNYADSVKGRFTISRDNAKNTVYLQMNSLKPEDTAVYYCNIGSYYSCYDFWGQGTQVTVSS | low polyreactivity
37 | QVQLVESGGGLVQAGGSLRLSCAASGSILYLNARGWYRQAPGKERELVAGISRRGGRTTYADSVKGRFTISRDNAKNTVYLQMNSLKPEDTAVSYCAVSTAYGYGYWGQGTQVTVSS | high polyreactivity
38 | QVQLVESGGGLVQAGGSLRLSCAASGSILYLYAMGWYRPAPGKERELVAAITRIGGSTYYADSVKGRFTISRDNAKNTVYLQMNSLKPEDTAVYYCAAGGTARDDSWGQGTQVTVSS | low polyreactivity
39 | QVQLVESGGGLVQAGGSLRLSCAASGSILYPYAMGWYRQAPGKERELVAAISRGGSTNYADSVKGRFTISRDNAKDTVYLQMNSLKPEDTAVYYCATAYTRFSQRYEYYVIYWQNDYWGQGTQVTVSS | low polyreactivity
40 | QVQLVESGGGLVQAGGSLRLSCAASGSILYSNAMGWYRQAPGKERELVAVITWGGGSTYYADSVKGRFTISRDNAKNTVFLQMNSLKPEDTAVYYCAARARRGLRAYVELDYWGQGTQVTVSS | low polyreactivity
41 | QVQLVESGGGLVQAGGSLRLSCAASGSILYSYPMGWYRQAPGKERELVAAITGDGASTTYADSVKGRFTISRDNAKNTVYLQLNSLKPEDTAVYYCKAGRESDDVSEGSQRICQFDYWGPGTQVTVSS | low polyreactivity
42 | QVQLVESGGGLVQAGGSLRLSCAASGSILYVYAMGWYRQAPGKEWELVAVITSGGSTNYADSVKGRFTISRDNAKNTVYLQMNSLKPEDTAVYYCAADPYSVYGGDYWGQGTQVTVSS | low polyreactivity
43 | QVQLVESGGGLVQAGGSLRLSCAASGSILYYNAMGWYRQAPGKERELVAAISQRGASTYYADSVKGRFTISRDNAKNTVYLQMNSLKPEDTAVYYCAARTRLTADPRYGISSKMYYWGQGTQVTVSS | high polyreactivity
